This note sets out measurements from US20040191811A1, “Methods for measuring levels of uridine-diphosphate-N-acetylglucosamine and activity of inhibitors thereof” (priority 2002, published 2004).

Common to all, as to type: biochemical, human
What all share (details): other: extracts from transfected SF9 insect cells, 60 minutes at 37° C.

Substrate in data set [1]: O=C(CO)[C@@H](O)[C@H](O)[C@H](O)COP(=O)(O)O
Kind of data set: Substrate Km determination for GFAT-alpha (Lineweaver-Burk plot). Here is the method: (§1) FIG. 3 illustrates the effect of varying concentrations of the substrates glutamine and fructose 6-phosphate on the enzyme activity of GFAT-alpha and GFAT-beta. FIG. 3A is a graph illustrating incubation with 10 μl glutamine 200 mM+10 μl fructose 6-phosphate 3.125, 6.25, 12.5, 25, 50, 100, and 200 mM. FIG. 3B is a graph illustrating incubation with 10 μl fructose 6-phosphate 200 mM+10 μl glutamine 3.125, 6.25, 12.5, 25, 50, 100, and 200 mM. 10 μl of GFAT-alpha and 5 μl of GFAT-beta extracts from transfected SF9 insect cells are incubated with 1) 10 μl glutamine 200 mM+10 μl fructose 6-phosphate 3.125, 6.25, 12.5, 25, 50, 100, and 200 mM, and 2) 10 μl fructose 6-phosphate 200 mM+10 μl glutamine 3.125, 6.25, 12.5, 25, 50, 100, and 200 mM in an incubation media containing 10 μl PBS 10×, 10 μl EDTA 50 mM, 10 μl DTT 10 mM, and water to 100 μl. The plate is sealed with a Costar plate sealer and incubated for 60 minutes at 37° C. by floating on a water bath. Additional incubation mixture is kept on ice to add to standard and control samples. […] After a 20-minute incubation at 37° C., the OD is determined for each well at 585 nm.
(§2) FIG. 3C is a table illustrating the Km values of the substrates for the GFAT-alpha and GFAT-beta enzymes calculated from the data generated in FIGS. 3A and 3B. […]

Substrate in data set [2]: NC(=O)CC[C@H](N)C(=O)O
The description is as above. Here is the method: as §1, §2

Substrate in data set [3]: O=C(CO)[C@@H](O)[C@H](O)[C@H](O)COP(=O)(O)O
Nature of the data set: Substrate Km determination for GFAT-beta (Lineweaver-Burk plot). The method, then: as §1, §2

Substrate in data set [4]: NC(=O)CC[C@H](N)C(=O)O
Described as above. The method, then:
as §1, §2

B1: GFAT-alpha (Homo sapiens) (protein)
chain: MCGIFAYLNYHVPRTRREILETLIKGLQRLEYRGYDSAGVGFDGGNDKDWEANACKIQLIKKKGKVKALDEEVHKQQDMDLDIEFDVHLGIAHTRWATHGEPSPVNSHPQRSDKNNEFIVIHNGIITNYKDLKKFLESKGYDFESETDTETIAKLVKYMYDNRESQDTSFTTLVERVIQQLEGAFALVFKSVHFPGQAVGTRRGSPLLIGVRSEHKLSTDHIPILYRTGKDKKGSCNLSRVDSTTCLFPVEEKAVEYYFASDASAVIEHTNRVIFLEDDDVAAVVDGRLSIHRIKRTAGDHPGRAVQTLQMELQQIMKGNFSSFMQKEIFEQPESVVNTMRGRVNFDDYTVNLGGLKDHIKEIQRCRRLILIACGTSYHAGVATRQVLEELTELPVMVELASDFLDRNTPVFRDDVCFFLSQSGETADTLMGLRYCKERGALTVGITNTVGSSISRETDCGVHINAGPEIGVASTKAYTSQFVSLVMFALMMCDDRISMQERRKEIMLGLKRLPDLIKEVLSMDDEIQKLATELYHQKSVLIMGRGYHYATCLEGALKIKEITYMHSEGILAGELKHGPLALVDKLMPVIMIIMRDHTYAKCQNALQQVVARQGRPVVICDKEDTETIKNTKRTIKVPHSVDCLQGILSVIPLQLLAFHLAVLRGYDVDFPRNLAKSVTVE
notes: made in house; host or cells: SF9 insect cells (sonicated, centrifuged cell extract, not purified)
For the protein B1, the figures for the Michaelis-Menten constant (Km) in data set [1] and in data set [2] were 1850 µM and 1490 µM, respectively.

B2: GFAT-beta (Homo sapiens) (protein)
chain: MCGIFAYMNYRVPRTRKEIFETLIKGLQRLEYRGYDSAGVAIDGNNHEVKERHIQLVKKRGKVKALDEELYKQDSMDLKVEFETHFGIAHTRWATHGVPSAVNSHPQRSDKGNEFVVIHNGIITNYKDLRKFLESKGYEFESETDTETIAKLIKYVFDNRETEDITFSTLVERVIQQLEGAFALVFKSVHYPGEAVATRRGSPLLIGVRSKYKLSTEQIPILYRTCTLENVKNICKTRMKRLDSSACLHAVGDKAVEFFFASDASAIIEHTNRVIFLEDDDIAAVADGKLSIHRVKRSASDDPSRAIQTLQMELQQIMKGNFSAFMQKEIFEQPESVFNTMRGRVNFETNTVLLGGLKDHLKEIRRCRRLIVIGCGTSYHAAVATRQVLEELTELPVMVELASDFLDRNTPVFRDDVCFFISQSGETADTLLALRYCKDRGALTVGVTNTVGSSISRETDCGVHINAGPEIGVASTKAYTSQFISLVMFGLMMSEDRISLQNRRQEIIRGLRSLPELIKEVLSLEEKIHDLALELYTQRSLLVMGRGYNYATCLEGALKIKEITYMHSEGILAGELKHGPLALIDKQMPVIMVIMKDPCFAKCQNALQQVTARQGRPIILCSKDDTESSKFAYKTIELPHTVDCLQGILSVIPLQLLSFHLAVLRGYDVDFPRNLAKSVTVE
notes: as for B1
With B2, the Km in data set [3] came to 6800 µM; in data set [4], 1990 µM.
